Measured values published in publication PMC5127641 (eLife, 2016).
“And” between values parts separate entries of the source, which are not always exact repeats. Identical values can stand only once.

Target: M-CDP04 (αMCL1)
Test: BLI; biotinylated BCL2 homolog (25 nM) immobilised on streptavidin biosensors, designed protein in solution at defined concentrations; Octet RED96; 10 mM HEPES pH 7.4, 150 mM NaCl, 3 mM EDTA, 0.05% surfactant P20, 0.5% non-fat dry milk; titrations in triplicate, 1:1 binding model
Conditions: both partners purified

B1: Bcl-B (natural protein)
chain: ADPLRERTELLLADYLGYCAREPGTPEPAPSTPEAAVLRSAAARLRQIHRSFFSAYLGYPGNRFELVALMADSVLSDSPGPTWGRVVTLVTFAGTLLERGPLVTARWKKWGFQPRLKEQEGDVARDCQRLVALLSSRLMGQHRAWLQAQGGWDGFCHFFRTPFPLA
modifications: biotin (enzymatic, BirA)
koff: 0.199 s⁻¹ and 0.186 s⁻¹ and 0.148 s⁻¹ and 0.178 s⁻¹
kon: 5830 M⁻¹ s⁻¹ and 9300 M⁻¹ s⁻¹ and 13200 M⁻¹ s⁻¹ and 9440 M⁻¹ s⁻¹
